Laboratory results reported in US20230241257A1, “BIOTIN-MODIFIED DIMER AND USE THEREOF” (THE UNIVERSITY OF TOKYO, priority 2020, published 2023).

T1: Recombinant Human CEACAM-5/CD66e Protein, CF (R & D SYSTEMS) (human, UniProt P06731 35-685)
T1 construct: Bought recombinant protein, immobilized on a CM5 chip by amine coupling (279 RU); also called carcinoembryonic antigen
T1 sequence (looked up): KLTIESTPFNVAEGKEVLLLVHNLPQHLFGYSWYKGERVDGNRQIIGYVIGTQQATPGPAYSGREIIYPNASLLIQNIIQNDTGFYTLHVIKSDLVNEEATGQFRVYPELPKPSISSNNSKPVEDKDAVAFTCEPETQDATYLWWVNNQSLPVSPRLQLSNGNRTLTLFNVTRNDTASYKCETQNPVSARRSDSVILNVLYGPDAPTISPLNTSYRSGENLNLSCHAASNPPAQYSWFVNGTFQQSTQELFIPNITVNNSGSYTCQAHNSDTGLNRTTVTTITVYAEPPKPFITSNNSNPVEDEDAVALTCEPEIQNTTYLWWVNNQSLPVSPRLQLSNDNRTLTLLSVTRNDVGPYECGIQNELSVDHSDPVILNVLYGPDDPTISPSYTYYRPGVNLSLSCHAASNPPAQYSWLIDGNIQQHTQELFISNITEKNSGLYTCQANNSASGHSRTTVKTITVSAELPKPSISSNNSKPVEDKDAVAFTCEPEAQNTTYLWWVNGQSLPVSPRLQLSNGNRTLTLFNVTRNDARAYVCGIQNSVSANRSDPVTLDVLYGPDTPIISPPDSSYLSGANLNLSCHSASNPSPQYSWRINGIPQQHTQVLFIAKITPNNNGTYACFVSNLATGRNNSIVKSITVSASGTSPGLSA

T2: Recombinant Human CEACAM-5/CD66e Protein (Homo sapiens, UniProt P06731)
T2 construct: purchased R & D SYSTEMS
T2 sequence (P06731 35-676): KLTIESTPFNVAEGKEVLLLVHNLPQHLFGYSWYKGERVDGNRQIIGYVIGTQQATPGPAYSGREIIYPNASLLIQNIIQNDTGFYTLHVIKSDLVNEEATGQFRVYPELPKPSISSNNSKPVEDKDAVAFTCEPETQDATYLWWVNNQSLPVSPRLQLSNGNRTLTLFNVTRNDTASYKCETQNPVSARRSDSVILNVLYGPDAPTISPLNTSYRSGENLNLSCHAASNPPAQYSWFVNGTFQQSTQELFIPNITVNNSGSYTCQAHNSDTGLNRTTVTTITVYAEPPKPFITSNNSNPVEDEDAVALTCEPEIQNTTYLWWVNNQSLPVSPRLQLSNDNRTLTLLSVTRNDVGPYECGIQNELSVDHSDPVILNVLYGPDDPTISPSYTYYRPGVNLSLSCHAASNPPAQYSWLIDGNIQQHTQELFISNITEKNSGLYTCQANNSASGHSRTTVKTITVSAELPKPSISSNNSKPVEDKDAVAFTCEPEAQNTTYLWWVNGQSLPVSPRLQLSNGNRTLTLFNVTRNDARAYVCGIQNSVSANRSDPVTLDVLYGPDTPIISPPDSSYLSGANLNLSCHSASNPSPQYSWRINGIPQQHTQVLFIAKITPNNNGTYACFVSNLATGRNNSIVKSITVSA


Key:
[1] = target: T1, Recombinant Human CEACAM-5/CD66e …; assay: SPR, Biacore T200, CEACAM5 immobilized on CM5, CEA-V2122 as analyte, single-cycle kinetics, bivalent analysis fit (KD = kd1/ka1)
Method: (§1) The affinity of CEA-V2122 for the antigen CEACAM5 was evaluated using a surface plasmon resonance (SPR) measuring device, Biacore T200 (GE Healthcare Life Sciences). Specifically, Recombinant Human CEACAM-5/CD66e Protein, CF (R & D SYSTEMS) was immobilized on Sensor Chip CM5 (GE Healthcare Life Sciences) using an amine-coupling kit (GE Healthcare Life Sciences). The final amount of the ligand immobilized was 279 RU. Moreover, about the purified CEA-V2122, two-fold serial dilutions from 1E-08 M to 6.25E-10 M were prepared as analytes. Regarding interaction analysis, data were obtained by single-cycle kinetics analysis.

[2] = target: T2, Recombinant Human CEACAM-5/CD66e Protein; assay: SPR affinity of CEA-V2122 for the antigen CEACAM5 (Biacore T200); format: binding
Method: as §1, with “analysis. Using Biacore T200 Evaluation Software, version 2.0, the obtained data were subjected to curve fitting in a bivalent analysis mode, and the following values were obtained: ka1=3.208E+5, and kd1=3.461E−7.” for “analysis.”

[3] = single-cycle kinetics, bivalent analysis mode

Row | Kd [1] | KD=kd1/ka1 ([2]; bivalent analysis) | ka1 [2, 3] | kd1 [2, 3] | Molecule
1 | 1.08 pM |  |  |  | CEA-V2122 protein (scFv-type anti-CEACAM5 antibody fused to mutant streptavidin V2122 via the linker GGGGSGGGG) (scFv, It was secreted and purified from the culture supernatant through the His tag and Protein L. The purified product is mainly a tetramer of about 150 kDa; also called Cupid-scFv antibody; CEA-Cupid) scFv: QVKLEQSGAEVVKPGASVKLSCKASGFNIKDSYMHWLRQGPGQRLEWIGWIDPENGDTEYAPKFQGKATFTTDTSANTAYLGLSSLRPEDTAVYYCNEGTPTGPYYFDYWGQGTLVTVSSGGGGSGGGGSGGGGSENVLTQSPSSMSVSVGDRVNIACSASSSVPYMHWLQQKPGKSPKLLIYLTSNLASGVPSRFSGSGSGTDYSLTISSVQPEDAATYYCQQRSSYPLTFGGGTKLEIKGGGGSGGGGAEAGITGTWSDQLGDTFIVTAGADGALTGTYENAVGGAESRYVLTGRYDSAPATDGSGTALGWTVAWKNNSKNAHSATTWSGQYVGGADAKINTQWLLTSGTTNANAWKSTLVGHDTFTKVKPSAASHHHHHH
2 |  | 1.078E−12 | 3.208E+5 | 3.461E−7 | CEA-V2122: scFv-type anti-CEACAM5 antibody bound to mutant streptavidin V2122 via amino acid linker GGGGSGGGG (SEQ ID NO: 3) (protein) scFv: QVKLEQSGAEVVKPGASVKLSCKASGFNIKDSYMHWLRQGPGQRLEWIGWIDPENGDTEYAPKFQGKATFTTDTSANTAYLGLSSLRPEDTAVYYCNEGTPTGPYYFDYWGQGTLVTVSSGGGGSGGGGSGGGGSENVLTQSPSSMSVSVGDRVNIACSASSSVPYMHWLQQKPGKSPKLLIYLTSNLASGVPSRFSGSGSGTDYSLTISSVQPEDAATYYCQQRSSYPLTFGGGTKLEIKGGGGSGGGGAEAGITGTWSDQLGDTFIVTAGADGALTGTYENAVGGAESRYVLTGRYDSAPATDGSGTALGWTVAWKNNSKNAHSATTWSGQYVGGADAKINTQWLLTSGTTNANAWKSTLVGHDTFTKVKPSAASHHHHHH
